Patent publication US20180125921A1, “USE OF QBP1 PEPTIDE FOR THE INHIBITION OF MEMORY CONSOLIDATION” (CONSEJO SUPERIOR DE INVESTIGACIONES CIENTÍFICAS, priority 2015, published 2018)

Molecular target: Orb2A PLD (Drosophila), Q9VSR3
Experiment: cell-based or functional assay

formation of M (mechanostable) conformers, AFM-SMFS: 16.1%
Binder: Ac-WKWWPGIF-NH2 [minimal active core of QBP1 (QBP1 fragment), Ac-WKWWPGIF-NH2]
